Assay results published in IntAct's records for PubMed 22921829.

B1: Mothers against decapentaplegic homolog 3 (Homo sapiens), P84022 (parent)
chain: MSSILPFTPPIVKRLLGWKKGEQNGQEEKWCEKAVKSLVKKLKKTGQLDELEKAITTQNVNTKCITIPRSLDGRLQVSHRKGLPHVIYCRLWRWPDLHSHHELRAMELCEFAFNMKKDEVCVNPYHYQRVETPVLPPVLVPRHTEIPAEFPPLDDYSHSIPENTNFPAGIEPQSNIPETPPPGYLSEDGETSDHQMNHSMDAGSPNLSPNPMSPAHNNLDLQPVTYCEPAFWCSISYYELNQRVGETFHASQPSMTVDGFTDPSNSERFCLGLLSNVNRNAAVELTRRHIGRGVRLYYIGGEVFAECLSDSAIFVQSPNCNQRYGWHPATVCKIPPGCNLKIFNNQEFAALLAQSVNQGFEAVYQLTRMCTIRMSFVKGWGAEYRRQTVTSTPCWIELHLNGPLQWLDKVLTQMGSPSIRCSSVS
B2: Mothers against decapentaplegic homolog 7 (Homo sapiens), O15105 (parent)
chain: MFRTKRSALVRRLWRSRAPGGEDEEEGAGGGGGGGELRGEGATDSRAHGAGGGGPGRAGCCLGKAVRGAKGHHHPHPPAAGAGAAGGAEADLKALTHSVLKKLKERQLELLLQAVESRGGTRTACLLLPGRLDCRLGPGAPAGAQPAQPPSSYSLPLLLCKVFRWPDLRHSSEVKRLCCCESYGKINPELVCCNPHHLSRLCELESPPPPYSRYPMDFLKPTADCPDAVPSSAETGGTNYLAPGGLSDSQLLLEPGDRSHWCVVAYWEEKTRVGRLYCVQEPSLDIFYDLPQGNGFCLGQLNSDNKSQLVQKVRSKIGCGIQLTREVDGVWVYNRSSYPIFIKSATLDNPDSRTLLVHKVFPGFSIKAFDYEKAYSLQRPNDHEFMQQPWTGFTVQISFVKGWGQCYTRQFISSCPCWLEVIFNSR
B3: E3 ubiquitin-protein ligase SMURF1 (Homo sapiens), Q9HCE7-1 (parent)
chain: MSNPGTRRNGSSIKIRLTVLCAKNLAKKDFFRLPDPFAKIVVDGSGQCHSTDTVKNTLDPKWNQHYDLYVGKTDSITISVWNHKKIHKKQGAGFLGCVRLLSNAISRLKDTGYQRLDLCKLNPSDTDAVRGQIVVSLQTRDRIGTGGSVVDCRGLLENEGTVYEDSGPGRPLSCFMEEPAPYTDSTGAAAGGGNCRFVESPSQDQRLQAQRLRNPDVRGSLQTPQNRPHGHQSPELPEGYEQRTTVQGQVYFLHTQTGVSTWHDPRIPSPSGTIPGGDAAFLYEFLLQGHTSEPRDLNSVNCDELGPLPPGWEVRSTVSGRIYFVDHNNRTTQFTDPRLHHIMNHQCQLKEPSQPLPLPSEGSLEDEELPAQRYERDLVQKLKVLRHELSLQQPQAGHCRIEVSREEIFEESYRQIMKMRPKDLKKRLMVKFRGEEGLDYGGVAREWLYLLCHEMLNPYYGLFQYSTDNIYMLQINPDSSINPDHLSYFHFVGRIMGLAVFHGHYINGGFTVPFYKQLLGKPIQLSDLESVDPELHKSLVWILENDITPVLDHTFCVEHNAFGRILQHELKPNGRNVPVTEENKKEYVRLYVNWRFMRGIEAQFLALQKGFNELIPQHLLKPFDQKELELIIGGLDKIDLNDWKSNTRLKHCVADSNIVRWFWQAVETFDEERRARLLQFVTGSTRVPLQGFKALQGSTGAAGPRLFTIHLIDANTDNLPKAHTCFNRIDIPPYESYEKLYEKLLTAVEETCGFAVE
B4: E3 ubiquitin-protein ligase NEDD4-like (Homo sapiens), Q96PU5-5 (parent)
chain: MATGLGEPVYGLSEDEGESRILRVKVVSGIDLAKKDIFGASDPYVKLSLYVADENRELALVQTKTIKKTLNPKWNEEFYFRVNPSNHRLLFEVFDENRLTRDDFLGQVDVPLSHLPTEDPTMERPYTFKDFLLRPRSHKSRVKGFLRLKMAYMPKNGGQDEENSDQRDDMEHGWEVVDSNDSASQHQEELPPPPLPPGWEEKVDNLGRTYYVNHNNRTTQWHRPSLMDVSSESDNNIRQINQEAAHRRFRSRRHISEDLEPEPSEGGDVPEPWETISEEVNIAGDSLGLALPPPPASPGSRTSPQELSEELSRRLQITPDSNGEQFSSLIQREPSSRLRSCSVTDAVAEQGHLPPPSVAYVHTTPGLPSGWEERKDAKGRTYYVNHNNRTTTWTRPIMQLAEDGASGSATNSNNHLIEPQIRRPRSLSSPTVTLSAPLEGAKDSPVRRAVKDTLSNPQSPQPSPYNSPKPQHKVTQSFLPPGWEMRIAPNGRPFFIDHNTKTTTWEDPRLKFPVHMRSKTSLNPNDLGPLPPGWEERIHLDGRTFYIDHNSKITQWEDPRLQNPAITGPAVPYSREFKQKYDYFRKKLKKPADIPNRFEMKLHRNNIFEESYRRIMSVKRPDVLKARLWIEFESEKGLDYGGVAREWFFLLSKEMFNPYYGLFEYSATDNYTLQINPNSGLCNEDHLSYFTFIGRVAGLAVFHGKLLDGFFIRPFYKMMLGKQITLNDMESVDSEYYNSLKWILENDPTELDLMFCIDEENFGQTYQVDLKPNGSEIMVTNENKREYIDLVIQWRFVNRVQKQMNAFLEGFTELLPIDLIKIFDENELELLMCGLGDVDVNDWRQHSIYKNGYCPNHPVIQWFWKAVLLMDAEKRIRLLQFVTGTSRVPMNGFAELYGSNGPQLFTIEQWGSPEKLPRAHTCFNRLDLPPYETFEDLREKLLMAVENAQGFEGVD

Variants of: B1
Conditions: with NEDD4L

Variant | effect of a mutation on the interaction
T179A | disrupting interaction strength
P181A;P182A | disrupting interaction strength

Variants of: B2
Conditions: with NEDD4L

Variant | effect of a mutation on the interaction
P208A;P209A | disrupting interaction strength

Variants of: B3
Conditions: with smad7_human SMAD7, O15105

Variant | effect of a mutation on the interaction
Q247E;Q249E | decreasing interaction strength
R243A | decreasing interaction strength
R243E | decreasing interaction strength
Q249E | decreasing interaction strength

Variants of: B4
Conditions: with smad7_human SMAD7, O15105

Variant | effect of a mutation on the interaction
R380E | decreasing interaction strength
K378E | decreasing interaction strength
K378E;R380E | decreasing interaction strength
